# Measurements published in the supplement of paper PMC9112550, “Optimization of the antimicrobial peptide Bac7 by deep mutational scanning” (BMC Biology, 2022).
# Test system: Escherichia coli TOP10
# Test: shrunken log2 fold change of peptide-encoding DNA abundance (4.5 h post-induction vs induction); higher = less antimicrobial activity (less host growth inhibition)
# Details: time post-induction: 4.5 h; library: site-saturation at positions 5, 18, 19, 20
# 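Note: peptides expressed intracellularly from a pBAD plasmid library in pooled LB shake-flask culture, induced with 0.3% L-arabinose, DNA abundance read by NGS, three biological replicates, DESeq2 with apeglm shrinkage.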
row,Sequence,shrunken log2 fold change
1,RRIRIRPPRLPRPRPRPWFIPRP,-0.243
2,RRIRYRPPRLPRPRPRPLRFPRP,-0.28
3,RRIRIRPPRLPRPRPRPSCPPRP,-0.776
4,RRIRSRPPRLPRPRPRPHTVPRP,-0.218
5,RRIRHRPPRLPRPRPRPNCKPRP,-0.211
6,RRIRMRPPRLPRPRPRPGHNPRP,0.231
7,RRIRDRPPRLPRPRPRPAKKPRP,-0.00565
8,RRIRPRPPRLPRPRPRPGGQPRP,-0.0466
9,RRIRSRPPRLPRPRPRPVFSPRP,-0.43
10,RRIRQRPPRLPRPRPRPNQFPRP,0.0334
11,RRIRKRPPRLPRPRPRPERVPRP,0.281
12,RRIRTRPPRLPRPRPRPCTAPRP,-0.0896
13,RRIRIRPPRLPRPRPRPDGPPRP,-0.0369
14,RRIRTRPPRLPRPRPRPRTHPRP,-0.0753
15,RRIRNRPPRLPRPRPRPDVNPRP,-0.00804
16,RRIRTRPPRLPRPRPRPGPTPRP,0.455
17,RRIRIRPPRLPRPRPRPIMGPRP,-0.08
18,RRIRGRPPRLPRPRPRPPCEPRP,0.433
19,RRIRFRPPRLPRPRPRPVAGPRP,0.128
20,RRIRPRPPRLPRPRPRPHQRPRP,-0.232

row,Sequence,shrunken log2 fold change
1,RRIRQRPPRLPRPRPRPNAMPRP,-0.226
2,RRIRLRPPRLPRPRPRPVHRPRP,0.119
3,RRIRFRPPRLPRPRPRPEAKPRP,0.0369
4,RRIRERPPRLPRPRPRPANPPRP,-0.0315
5,RRIRLRPPRLPRPRPRPFYWPRP,0.228
6,RRIRKRPPRLPRPRPRPAMSPRP,-0.146
7,RRIRHRPPRLPRPRPRPLGSPRP,0.0703
8,RRIRCRPPRLPRPRPRPQEYPRP,-0.399
9,RRIRRRPPRLPRPRPRPCDEPRP,0.197
10,RRIRMRPPRLPRPRPRPNCYPRP,-0.26
11,RRIRMRPPRLPRPRPRPLAKPRP,0.791
12,RRIRSRPPRLPRPRPRPCQYPRP,0.0376
13,RRIRCRPPRLPRPRPRPWFKPRP,-0.582
14,RRIRVRPPRLPRPRPRPRQMPRP,0.117
15,RRIRLRPPRLPRPRPRPGPYPRP,-0.215
16,RRIRVRPPRLPRPRPRPVKSPRP,-0.0272
17,RRIRLRPPRLPRPRPRPYLKPRP,-0.396
18,RRIRIRPPRLPRPRPRPLKYPRP,-0.0551
19,RRIRCRPPRLPRPRPRPPAFPRP,0.504
20,RRIRCRPPRLPRPRPRPAVTPRP,0.0305

row,Sequence,shrunken log2 fold change
1,RRIRWRPPRLPRPRPRPFFMPRP,-0.108
2,RRIRYRPPRLPRPRPRPDMAPRP,-0.255
3,RRIRGRPPRLPRPRPRPKLVPRP,0.326
4,RRIRHRPPRLPRPRPRPFNKPRP,-0.01
5,RRIRDRPPRLPRPRPRPAYDPRP,0.0094
6,RRIRMRPPRLPRPRPRPGYGPRP,0.148
7,RRIRHRPPRLPRPRPRPFPEPRP,-0.104
8,RRIRDRPPRLPRPRPRPRYTPRP,-0.219
9,RRIRGRPPRLPRPRPRPGVEPRP,1.46
10,RRIRIRPPRLPRPRPRPPIKPRP,-0.4
11,RRIRRRPPRLPRPRPRPDHMPRP,-0.0178
12,RRIRVRPPRLPRPRPRPMVRPRP,0.00709
13,RRIRGRPPRLPRPRPRPPQMPRP,1.77
14,RRIRQRPPRLPRPRPRPKFIPRP,-0.0852
15,RRIRNRPPRLPRPRPRPGYEPRP,0.0608
16,RRIRVRPPRLPRPRPRPEIEPRP,0.173
17,RRIRIRPPRLPRPRPRPTIWPRP,-0.157
18,RRIRGRPPRLPRPRPRPQDAPRP,0.832
19,RRIRPRPPRLPRPRPRPNQGPRP,-0.55
20,RRIRWRPPRLPRPRPRPHDQPRP,0.36
